This note sets out measurements from patent US20040006782A1.

In this test the target is nicotinic acetylcholine receptor containing the alpha6 subunit (mouse, native in brain of wild type animals) (mouse), Q9R0W9.
Chain of nicotinic acetylcholine receptor containing the alpha6 subunit (mouse, native in brain of wild type animals) (mouse), Q9R0W9 (Q9R0W9 31-494, chain 1 of 2): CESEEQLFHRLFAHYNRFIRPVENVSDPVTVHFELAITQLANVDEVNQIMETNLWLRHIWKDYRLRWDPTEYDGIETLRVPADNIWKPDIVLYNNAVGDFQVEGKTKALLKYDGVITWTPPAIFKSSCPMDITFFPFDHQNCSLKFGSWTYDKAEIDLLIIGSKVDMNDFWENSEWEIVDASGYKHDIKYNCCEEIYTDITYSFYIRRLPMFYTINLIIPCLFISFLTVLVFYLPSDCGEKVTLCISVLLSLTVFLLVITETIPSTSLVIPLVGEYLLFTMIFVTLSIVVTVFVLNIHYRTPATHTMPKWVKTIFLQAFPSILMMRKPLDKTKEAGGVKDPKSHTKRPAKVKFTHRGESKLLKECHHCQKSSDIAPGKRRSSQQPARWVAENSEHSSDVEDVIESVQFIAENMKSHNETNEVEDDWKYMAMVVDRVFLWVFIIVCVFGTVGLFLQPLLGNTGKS
Chain of nicotinic acetylcholine receptor containing the alpha6 subunit (mouse, native in brain of wild type animals) (mouse), Q9R0W9 (Q9ERK7 26-501, chain 2 of 2, further chain): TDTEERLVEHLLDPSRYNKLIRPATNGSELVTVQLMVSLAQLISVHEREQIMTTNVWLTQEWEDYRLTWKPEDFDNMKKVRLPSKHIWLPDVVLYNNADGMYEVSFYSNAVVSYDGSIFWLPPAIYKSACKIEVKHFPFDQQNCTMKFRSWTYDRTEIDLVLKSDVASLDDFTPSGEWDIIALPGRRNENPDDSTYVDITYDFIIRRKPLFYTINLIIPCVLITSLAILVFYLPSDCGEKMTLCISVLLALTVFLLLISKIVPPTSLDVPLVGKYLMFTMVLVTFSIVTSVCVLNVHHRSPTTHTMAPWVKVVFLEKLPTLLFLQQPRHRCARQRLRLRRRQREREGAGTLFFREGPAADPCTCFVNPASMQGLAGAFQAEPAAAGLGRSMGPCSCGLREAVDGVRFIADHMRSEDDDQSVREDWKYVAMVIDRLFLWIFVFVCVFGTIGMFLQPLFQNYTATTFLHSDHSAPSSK

For GCCSNPVCHLEHSNLC (modifications not checked) [α-conotoxin MII, P56636 49-64], the share of epibatidine binding sites sensitive to αCtxMII worked out at 20%.
